Bridge positions count the residues as written; N and C are the ends. Square brackets hold non-standard residues; d marks the D form. Ends that are not written are not given here. S5 = C=CCCC[C@](C)(N)C(=O)O
Target: T1, MCAD (Mus musculus, UniProt P45952)
T1 construct: endogenous in cells; host or cells: wild-type mouse embryonic fibroblasts (lysate)
T1 sequence (P45952 26-421): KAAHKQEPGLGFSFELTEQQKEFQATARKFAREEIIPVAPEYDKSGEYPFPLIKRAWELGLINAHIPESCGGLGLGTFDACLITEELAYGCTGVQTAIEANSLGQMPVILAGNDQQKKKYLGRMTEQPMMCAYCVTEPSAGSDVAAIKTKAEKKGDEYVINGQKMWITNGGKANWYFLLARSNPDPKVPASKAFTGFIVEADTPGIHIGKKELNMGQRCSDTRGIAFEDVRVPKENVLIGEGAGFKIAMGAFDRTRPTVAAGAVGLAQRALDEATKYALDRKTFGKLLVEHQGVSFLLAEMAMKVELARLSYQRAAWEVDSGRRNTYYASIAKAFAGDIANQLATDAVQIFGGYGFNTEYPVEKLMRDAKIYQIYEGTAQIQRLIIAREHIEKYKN
Test: Biotinylated SAHB pulldown from MEF lysates, MCAD Western analysis
Format: binding
Conditions: wild-type MEF lysates
Description: To validate the MS result, the pulldowns were repeated and eluates run on a gel for anti-VLCAD Western blot analysis. […] All peptides faithfully recapitulated native BH3-binding propensities for endogenous MCL-1 protein (FIG. 8). The eluates were then probed for the other members of the acyl-CoA dehydrogenase family that manifest shorter fatty acid substrate specificities. MCL-1 SAHBD was able to pull down VLCAD, but not MCAD or SCAD (FIG. 9). Because the traditional MCL-1 staple location differs from that of the BIM, BID, and BAD SAHBs, it was important to confirm that the observed VLCAD binding specificity was due to BH3 sequence selectivity, not staple position. A BIM SAHB with the traditional MCL-1 staple (BIM SAHBF), and a MCL-1 stapled peptide with the traditional BIM staple (MCL-1 SAHBA), were generated. […]
Wild-type MEFs were trypsinized, washed once with cold PBS, and lysed on ice with NP-40 lysis buffer (50 mM Tris, pH 7.4, 150 mM NaCl, 0.5% (v/v) NP-40, complete protease inhibitor pellet (Roche)) using 1 ml of lysis buffer for every 10 million cells lysed. Cellular debris was pelleted at 14,000 g for 10 min at 4° C., and the supernatant was quantified using the BCA Protein Assay Kit (Thermo Fisher Scientific). […]

## MCL-1 SAHBD: hydrocarbon-stapled peptide mimicking the MCL-1 BH3 domain (Stabilized Alpha-Helix of BCL-2 Domain), SEQ ID NO:19 (RKALETLRRVGDGV[S5]RNH[S5]TAF; staple 15-19)
  pull down of MCAD from cellular lysates: not

From patent publication US12366576B2, “Compositions, assays, and methods for direct modulation of fatty acid metabolism” (Dana-Farber Cancer Institute, Inc., priority 2016, dated 2025)
